# Measurements: PMC6602975
# B1: Sir3 BAH domain (construct 1–214), P06701 D205N (protein)
# chain: MAKTLKDLDGWQVIITDDQGRVIDDNNRRRSRKRGGENVFLKRISDGLSFGKGESVIFNDNVTETYSVYLIHEIRLNTLNNVVEIWVFSYLRWFELKPKLYYEQFRPDLIKEDHPLEFYKDKFFNEVNKSELYLTAELSEIWLKDFIAVGQILPESQWNDSSIDKIEDRDFLVRYACEPTAEKFVPIDIFQIIRRVKEMEPKQSNEYLKRVSVP
# Target: H4K16ac nucleosome
# Test: EMSA
# Conditions: chain shown with the change
binder,measurement,value
B1,Kd,810 nM
